Source: patent KR20130126543A

How the values were obtained:
Fc = assay: mono phage ELISA; Fc coated 100 ng/well; anti-M13-HRP
IL-6R-Fc 항원 (human) [1] = target: IL-6R-Fc 항원 (human) (UniProt P08887); assay: mono phage ELISA; antigen coated 100 ng/well; anti-M13-HRP
IL-6R-Fc 항원 (human) [2] = target: IL-6R-Fc 항원 (human) (UniProt P08887); assay: mono phage ELISA; ratio of the IL-6R full signal to the a-myc signal

Chain of UniProt P08887 (P08887 20-365 limits assumed): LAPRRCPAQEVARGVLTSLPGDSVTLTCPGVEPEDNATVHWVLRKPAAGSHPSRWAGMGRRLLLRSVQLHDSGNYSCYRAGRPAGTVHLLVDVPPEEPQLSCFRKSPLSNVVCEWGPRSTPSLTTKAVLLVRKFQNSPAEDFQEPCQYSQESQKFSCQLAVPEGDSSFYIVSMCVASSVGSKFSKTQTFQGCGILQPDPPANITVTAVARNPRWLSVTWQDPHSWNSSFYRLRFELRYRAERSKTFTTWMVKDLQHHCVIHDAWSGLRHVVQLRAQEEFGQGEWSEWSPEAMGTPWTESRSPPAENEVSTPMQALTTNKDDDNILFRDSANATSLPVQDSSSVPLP

| OD 490 nm (Fc) (Fc) | OD 490 nm (IL-6R full) (IL-6R-Fc 항원 (human) [1]) | Ratio (IL-6R-Fc 항원 (human) [2]) | Binder |
| --- | --- | --- | --- |
| 0.0405 OD490 | 2.86 OD490 | 9.96 | 모노 파아지 클론 F2 (scFv, V domains shown) VH: QVQLVESGAEVKKPGASVKVSCKASGYTFTNYYMHWVRQAPGQGLEWMGIINPSGGNTGYAQKFQGRVTMTRDMSTSTAYMELSSLRSEDTAVYYCARGLPWGENGLDVWGQGTTVTVSS VL: SQLVLTQPSSVSGAPGQTVTISCTGSSSNIGAGYDVHWYQQLPGTAPKVLIYGDSDRPSGVPDRFSGSKSATSASLAITGLQAEDEADYYCQSYDSSLSAYVFGTGTKVTVL |
| 0.0421 OD490 | 2.48 OD490 | 31.1 | 모노 파아지 클론 A7 (scFv, V domains shown) VH: QMQLVESGGGLVQPGTSLRLSCAASGFKFEDYAMHWVRQAPGKGLEWVSGVSWNSGTIAYVDSVKGRFTISRDNAKNSLYLQMNSLRAEDTAVYYCARDFTYFYESSGYYAFDLWGQGTMVTVSS VL: SQLVLTQPPSVSGAPGQRVTISCTGTNSNIGAGYDVHWYQQVPGTTPKLLIYGNTNRPSGVPDRFSGSKSGTSASLAITGLQAEDGGDYYCQSFDSSLTGSVFGTGTKVTVL |
| 0.0406 OD490 | 2.1 OD490 | 18.6 | 모노 파아지 클론 B10 (scFv, V domains shown) VH: QVQLVESGGGLVQPGGSLRLSCAASGFIFDDYAMFWVRQVPGKGLEWVAGINWNGNGIGYGDSVRGRFIISRDNARNSLDLQMNSLRAEDTAVYYCARPSLYGGNSEFDLWGQGTLVTVSS VL: SQLVLTQPPSVSGAPGQTVTISCTGPTIGAGYDVHWYQQLPGAAPKLLIYGNLNRPSGVPDRFSGSKSGTSASLAITDLQAEDEADYYCHTYDSSLSGSWVFGGGTKLTVL |
| 0.0415 OD490 | 2.34 OD490 | 7.71 | 모노 파아지 클론 D2 (scFv, V domains shown) VH: QVQLVESGAEVKKPGSSVKVSCKGSGDTFPNYAINWVRQAPGQGPEWMGRIIPMLGTSDYAEKFQGRVTITADKSTNTAYMGLNSLRSEDTAVYYCVKGPRYYGTDSYYLEKWGQGTMVTVSS VL: SQLVLTQPPSVSGAPGQTVTISCTGPTIGAGYDVHWYQQLPGAAPKLLIYGNLNRPSGVPDRFSGSKSGTSASLAITDLQAEDEADYYCHTYDSSLSGSWVFGGGTKLTVL |
